Data: US20260151519A1 (AKTIS ONCOLOGY, published 2026)
Bridges are numbered along the chain shown (N, C = ends). Primed or numbered codes have the meaning given here. Where no end group is shown, it is not given here. The star is where a group is joined. DOTA = O=C(O)CN1CCN(CC(=O)O)CCN(CC(=O)*)CCN(CC(=O)O)CC1; PEG12′ = not defined here

T1: Human Nectin-4 (human, UniProt Q96NY8 32-349, limits assumed)
T1 construct: Protein immobilised on the SPR chip; also called target protein
T1 sequence: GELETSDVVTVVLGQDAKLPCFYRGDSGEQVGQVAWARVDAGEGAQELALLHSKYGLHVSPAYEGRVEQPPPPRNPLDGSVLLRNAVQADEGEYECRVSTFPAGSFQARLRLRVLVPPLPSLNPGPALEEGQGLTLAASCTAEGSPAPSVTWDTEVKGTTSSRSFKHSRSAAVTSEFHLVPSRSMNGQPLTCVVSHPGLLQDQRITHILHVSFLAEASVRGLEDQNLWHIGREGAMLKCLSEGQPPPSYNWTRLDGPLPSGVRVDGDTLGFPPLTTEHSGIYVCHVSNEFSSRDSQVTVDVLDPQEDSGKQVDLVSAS


Biological target: T1, Human Nectin-4
Test: Table 2B (DELFIA or SPR)

Binder | Kd [nM]
Ac-CEYDEEFFNGLKRLRRGDICYYIKKKFDKVPDLCIEEILDKLGC-OH (designed binder, disulfide 1-34, 20-44) [C15] | 12.2
Ac-CEYDEEFFLGLKRLRGGDICYYIKKKFKKVPDLCIEEILEKLGC-OH (designed binder, disulfide 1-34, 20-44) [C60] | 3.17
Ac-CEYDEEFFDGLKRLRGGDICYYIKKKFKKVPDLCIEEILDKLGC-OH (designed binder, disulfide 1-34, 20-44) [C27] | 9.85
Ac-CEYDEEFFTGLKRLRGGTICYYIKKKFKKVPDLCIEEILDKLGC-OH (designed binder, disulfide 1-34, 20-44) [C41] | 5.6
Ac-CEYDEEFFAGLHRLRGGDICYYIKKKFPKVPDLCIEEILDKLGC-OH (designed binder, disulfide 1-34, 20-44) [C21] | 49.4
Ac-CEYDEEFFAGLHRLRGGDICYYIKKKFDKVPDLCIEEILDKLGC-OH (designed binder, disulfide 1-34, 20-44) [C20] | 22.1
Ac-CEYDEEFFAGLHRLRGTDICYYIKKKFDKVPDLCIEEILDKLGC-OH (designed binder, disulfide 1-34, 20-44) [C23] | 18.5
Ac-CEYDEQFFTGLKRLRGGDICYYIKKKFKKVPDLCIEEILDKLGC-OH (designed binder, disulfide 1-34, 20-44) [C49] | 1.93
Ac-CEYDEEFFLGLKRLRGGDICYYIKKKFKKVPELCIEEILKKLGC-OH (designed binder, disulfide 1-34, 20-44) [C67] | 2.64
{DOTA-PEG12′}-CEYDEEFFAGLKRLRGGDICYYIKKKFDKVPDLCIEEILDKLGC-OH (designed binder, disulfide 1-34, 20-44) [C51] | 8.37
Ac-CEYDEEFFTGLKRLRGGDICYYIKKKFKKVPKLCIEEILDKLGC-OH (designed binder, disulfide 1-34, 20-44) [C31] | 1.31
Ac-CEYDEEFFLGLKRLRGGDICYYIKKKFKKVPDLCIEEILDKLGC-OH (designed binder, disulfide 1-34, 20-44) [C34] | 3.17
Ac-CEYDEEFFEGLKKLRGGDICYYIKKKFKKVPDLCIEEILDKLGC-OH (designed binder, disulfide 1-34, 20-44) [C30] | 24.9
Ac-CEYDEEFFLALKRLRGGDICYYIKKKFKKVPKLCIEEILEKLGC-OH (designed binder, disulfide 1-34, 20-44) [C77] | 0.58
Ac-CEYDEEFFAGLKRLRGGDICYYIKKKFPKVPDLCIEEILDKLGC-OH (designed binder, disulfide 1-34, 20-44) [C19] | 10.8
Ac-CEYDEEFFTGLKRLRGGDICYYIKKKFKKVPDLCIEEILKKLGC-OH (designed binder, disulfide 1-34, 20-44) [C44] | 3.14
Ac-CEYDEEFFKALKRLRGGDICYYIKKKFKKVPKLCIEEILEKLGC-OH (designed binder, disulfide 1-34, 20-44) [C76] | 0.52
Ac-CEYDEEFFKGLKRLRGGDICYYIKKKFKKVPKLCIEEILEKLGC-OH (designed binder, disulfide 1-34, 20-44) [C69] | 1.86
Ac-CEYDEEFFTGLKRLRGGDICYYIKKKFKKVPDLCIEEILEKLGC-OH (designed binder, disulfide 1-34, 20-44) [C45] | 3.29
Ac-CEYDEEFFQGLKRLRGGDICYYIKKKFKKVPDLCIEEILDKLGC-OH (designed binder, disulfide 1-34, 20-44) [C33] | 3.47
Ac-CEYDEEFFLGLKRLRGGDICYYIKKKFKKVPELCIEEILEKLGC-OH (designed binder, disulfide 1-34, 20-44) [C68] | 2.66
Ac-CEYDEEFFTTLKRLRGGDICYYIKKKFKKVPKLCIEEILDKLGC-OH (designed binder, disulfide 1-34, 20-44) [C55] | 3.39

Binder | Kd [nM]
Ac-CEYDEKFFTGLKRLRGGDICYYIKKKFKKVPKLCIEEILDKLGC-OH (designed binder, disulfide 1-34, 20-44) [C70] | 2.2
Ac-CEYDEEFFAGLHRLRGTDICYYIKKKFPKVPDLCIEEILDKLGC-OH (designed binder, disulfide 1-34, 20-44) [C24] | 84.4
Ac-CEYDEEFFTLLKRLRGGDICYYIKKKFKKVPKLCIEEILDKLGC (designed binder, disulfide 1-34, 20-44) [C56] | 3.88
Ac-CEYDEEFFAGLKRLRGTDICYYIKKKFDKVPDLCIEEILDKLGC-OH (designed binder, disulfide 1-34, 20-44) [C22] | 12.8
Ac-CEYDEEFFTDLKRLRGGDICYYIKKKFKKVPKLCIEEILDKLGC-OH (designed binder, disulfide 1-34, 20-44) [C52] | 5.24
Ac-CEYDEEFFTGLKRLRGGDICYYIKKKFKKVPELCIEEILDKLGC-OH (designed binder, disulfide 1-34, 20-44) [C32] | 3.26
Ac-CEYDEEFFLGLKRLRGGDICYYIKKKFKKVPKLCIEEILDKLGC-OH (designed binder, disulfide 1-34, 20-44) [C58] | 1.81
Ac-CEYDEEFFTGLKRLRGGDICYYIKKKFKKVPDLCIEEILDKLGC-OH (designed binder, disulfide 1-34, 20-44) [C29] | 3.91
Ac-CEYDEEFFLGLKRLRGGDICYYIKKKFKKVPDLCIEEILKKLGC-OH (designed binder, disulfide 1-34, 20-44) [C64] | 3.8
Ac-CEYDEEFFLGLKRLRGGDICYYIKKKFKKVPKLCIEEILEKLGC-OH (designed binder, disulfide 1-34, 20-44) [C61] | 1.79
Ac-CEYDEEFFEGLKRLRGGDICYYIKKKFKKVPDLCIEEILDKLGC-OH (designed binder, disulfide 1-34, 20-44) [C26] | 5.04
Ac-CEYDEEFFTGLKRLRGGDICYYIKKKFKKVPELCIEEILEKLGC-OH (designed binder, disulfide 1-34, 20-44) [C66] | 2.63
Ac-CEYDEEFFNGLHRLRRGDICYYIKKKFKKVPDLCIEEILDKLGC-OH (designed binder, disulfide 1-34, 20-44) [C18] | 38.2
Ac-CEYDEEFFLGLKRLRGGDICYYIKKKFKKVPKLCIEEILKKLGC-OH (designed binder, disulfide 1-34, 20-44) [C63] | 1.97
Ac-CEYDEEFFNGLKRLRGGDICYYIKKKFKKVPDLCIEEILDKLGC-OH (designed binder, disulfide 1-34, 20-44) [C17] | 4.16
Ac-CEYDEKFFTGLKRLRGGDICYYIKKKFKKVPDLCIEEILDKLGC-OH (designed binder, disulfide 1-34, 20-44) [C46] | 2.28
Ac-CEYDEEFFTALKRLRGGDICYYIKKKFKKVPKLCIEEILDKLGC-OH (designed binder, disulfide 1-34, 20-44) [C57] | 0.29
Ac-CEYDEEFFLALKRLRGGDICYYIKKKFKKVPKLCIEEILDKLGC-OH (designed binder, disulfide 1-34, 20-44) [C78] | 0.49
Ac-CEYDEQFFTGLKRLRGGDICYYIKKKFKKVPKLCIEEILDKLGC-OH (designed binder, disulfide 1-34, 20-44) [C71] | 2.85
Ac-CEYDEEFFTGLKRLRGGDICYYIKKKFKKVPELCIEEILKKLGC-OH (designed binder, disulfide 1-34, 20-44) [C65] | 2.21
Ac-CEYDEEFFKGLKRLRGGDICYYIKKKFKKVPDLCIEEILDKLGC-OH (designed binder, disulfide 1-34, 20-44) [C25] | 3.75
Ac-CEYDEEFFSGLKRLRGGDICYYIKKKFKKVPDLCIEEILDKLGC-OH (designed binder, disulfide 1-34, 20-44) [C28] | 5.29
